Reference: US20040033952A1 (published 2004)

How the values were obtained:
[1] = target: T1, recombinant human IGFBP-3 (human, UniProt P17936 28-291); assay: competitive phage ELISA
T1 construct: mature
Description: (§1) E. coli cells (XL1-Blue, Stratagene) freshly transformed with phagemid vector were grown overnight in 5 mL 2YT medium (Sambrook et al., supra) in the presence of M13-VCS helper phage (Stratagene). Phage particles were harvested and resuspended in PBS buffer as described in Lowman, H. B., “Phage Display of Peptide Libraries on Protein Scaffolds,” in Cabilly, S. (ed.), Combinatorial Peptide Library Protocols (Humana Press Inc.: Totowa, N.J., 1998), pp. 249-264. Then phage concentrations were normalized to yield a maximal ELISA signal of 0.2-0.4 for each mutant (Lowman, in Cabilly, S. (ed.), supra). Threefold serial dilutions of soluble competitor were prepared on non-absorbent microtiter plates (Nune, F, 96 wells) with binding buffer (0.5% TWEEN™ 20/PBS) containing phage at the previously-determined concentrations. The dilution range of competitor protein extended over six orders of magnitude, starting at 5 μM for IGFBP-1 and 500 nM for IGFBP-3. After blocking, the plates containing immobilized target were washed with 0.05% TWEEN™/PBS buffer and subsequently incubated with 80 μl/well of the premixed phage-competitor solutions for 1 hour at room temperature. After washing, bound phage was detected with 80 μl/well of a solution containing a primary rabbit anti-phage polyclonal antibody and a secondary goat anti-rabbit monoclonal antibody-horseradish peroxidase conjugate in 0.5% TWEEN20™/PBS. o-Phenylenediamine (Sigma) and tetramethylbenzidine (Kirkegaard and Perry) were used as chromogenic substrates, resulting in product detection at 492 and 450 nm, respectively. IC₅₀ values were determined by fitting the binding data to a generic saturation curve (Lowman, in Cabilly, S. (ed.), supra).

human IGFBP-1 = target: T2, human IGFBP-1 (human, UniProt P08833 26-259); assay: competitive phage ELISA
T2 construct: mature; also called IGFBP-I
T2 sequence (looked up): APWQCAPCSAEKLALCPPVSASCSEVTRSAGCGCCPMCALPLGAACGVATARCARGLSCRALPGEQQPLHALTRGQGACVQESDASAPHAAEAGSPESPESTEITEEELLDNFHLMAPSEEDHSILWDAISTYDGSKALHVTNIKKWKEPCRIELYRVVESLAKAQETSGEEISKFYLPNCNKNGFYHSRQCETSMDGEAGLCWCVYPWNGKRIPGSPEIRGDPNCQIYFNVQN
Description: as §1

[2] = target: T3, human IGFBP-1 (human), P08833; assay: competitive phage ELISA, IGFBP-3-coated wells, soluble IGFBP-1 as competitor (FIG. 3A); details: remark: other sources report otherwise
T3 chain: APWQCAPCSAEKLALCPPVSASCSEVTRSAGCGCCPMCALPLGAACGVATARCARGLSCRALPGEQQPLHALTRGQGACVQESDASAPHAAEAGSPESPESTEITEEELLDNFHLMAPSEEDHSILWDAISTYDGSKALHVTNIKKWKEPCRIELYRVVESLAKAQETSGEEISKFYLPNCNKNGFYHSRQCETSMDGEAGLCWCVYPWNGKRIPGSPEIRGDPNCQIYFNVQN

[3] = target: T3, human IGFBP-1 (human), P08833; assay: competitive phage ELISA; details: remark: other sources report otherwise

T1 sequence (P17936 28-291): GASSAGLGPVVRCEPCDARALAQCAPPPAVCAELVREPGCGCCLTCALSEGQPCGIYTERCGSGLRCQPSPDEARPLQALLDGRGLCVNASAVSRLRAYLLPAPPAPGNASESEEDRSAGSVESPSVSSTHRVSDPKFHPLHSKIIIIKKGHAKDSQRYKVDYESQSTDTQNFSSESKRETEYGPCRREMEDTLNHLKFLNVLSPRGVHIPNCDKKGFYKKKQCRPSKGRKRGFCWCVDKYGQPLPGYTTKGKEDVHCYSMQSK

Molecule: IGF-I L5A (phage-displayed) (from UniProt P69168 267-424) (ligand)
- relative IC50 (IC50 mut/IC50 G1S-A70V) [1]: 2
- relative IC50 (IC50 mut/IC50 G1S-A70V) (human IGFBP-1): 6.7

B1: IGF-I F49A (phage-displayed), P07455 51-118 (ligand, not shown: large carriers; small tags and cut ends)
chain: SPETLCGAELVDALQFVCGDRGFYFNKPTGYGSSSRRAPQTGIVDECCARSCDLRRLEMYCAPLKPAKSV
- shift of the binding curve against G1S-A70V phage [2]: > 100 fold
- relative IC50 (IC50 mut/IC50 G1S-A70V) [3]: > 100

B2: Ala(1-3)-IGF-I (phage-displayed triple alanine mutant) (ligand)
chain: AAATLCGAELVDALQFVCGDRGFYFNKPTGYGSSSRRAPQTGIVDECCFRSCDLRRLEMYCAPLKPAKSV
- IC50 [1]: 1.12 nM
- IC50 (human IGFBP-1): 90.4 nM

B3: IGF-I G7A (phage-displayed) (ligand)
chain: SPETLCAAELVDALQFVCGDRGFYFNKPTGYGSSSRRAPQTGIVDECCFRSCDLRRLEMYCAPLKPAKSV
notes: G1S-A70V template; monovalent M13 display; not shown: M13 gene III fragment (residues 249-406), the display carrier, and its junction to IGF-I
- IC50 [1]: 4.58 nM
